T1: FcγRIIa(R) (human, UniProt P12318 34-217)
T1 construct: extracellular domain; also called 2aR
T1 sequence: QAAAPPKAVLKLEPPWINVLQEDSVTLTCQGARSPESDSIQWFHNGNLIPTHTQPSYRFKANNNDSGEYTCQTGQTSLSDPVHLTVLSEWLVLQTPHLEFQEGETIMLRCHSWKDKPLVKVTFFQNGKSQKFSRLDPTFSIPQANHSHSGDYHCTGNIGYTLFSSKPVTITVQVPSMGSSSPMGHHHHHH

T2: FcγRIIa(H) (human, UniProt P12318 34-217)
T2 construct: extracellular domain; also called 2aH
T2 sequence: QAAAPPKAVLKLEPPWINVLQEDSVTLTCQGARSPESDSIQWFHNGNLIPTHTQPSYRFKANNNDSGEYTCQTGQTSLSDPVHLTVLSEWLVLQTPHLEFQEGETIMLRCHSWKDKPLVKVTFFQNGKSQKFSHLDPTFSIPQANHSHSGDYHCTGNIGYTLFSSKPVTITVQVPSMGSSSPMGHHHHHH

T3: FcγRIIb (human, UniProt P31994 43-217)
T3 construct: extracellular domain; also called 2b
T3 sequence: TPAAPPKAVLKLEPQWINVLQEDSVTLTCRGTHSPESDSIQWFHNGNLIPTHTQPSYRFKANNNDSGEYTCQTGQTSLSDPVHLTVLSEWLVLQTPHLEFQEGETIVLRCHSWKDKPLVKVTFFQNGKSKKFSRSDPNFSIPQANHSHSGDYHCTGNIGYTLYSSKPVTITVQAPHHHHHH


What was measured:
Experiment in all cases: SPR, relative to GpH7-A5/GpH7-B3/GpL16-k0 =100
FcγRIa = biological target: T4, FcγRIa (human, UniProt P12314 16-292)
T4 construct: extracellular domain; also called 1a
T4 sequence (P12314 other isoform, or with tags, fused parts or gaps): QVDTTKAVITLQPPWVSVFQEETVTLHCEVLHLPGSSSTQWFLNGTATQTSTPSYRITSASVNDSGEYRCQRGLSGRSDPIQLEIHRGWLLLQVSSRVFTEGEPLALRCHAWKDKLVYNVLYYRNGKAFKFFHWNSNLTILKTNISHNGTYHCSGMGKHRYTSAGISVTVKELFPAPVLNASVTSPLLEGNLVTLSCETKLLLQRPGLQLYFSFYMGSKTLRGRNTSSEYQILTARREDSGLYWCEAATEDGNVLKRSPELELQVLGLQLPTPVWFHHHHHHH

FcγRIIa(R) = biological target: T1, FcγRIIa(R)
FcγRIIa(H) = biological target: T2, FcγRIIa(H)
FcγRIIb = biological target: T3, FcγRIIb

| Binder | He/Con 1a (FcγRIa) [%] | He/Con 2aR (FcγRIIa(R)) [%] | He/Con 2aH (FcγRIIa(H)) [%] | He/Con 2b (FcγRIIb) [%] |
| --- | --- | --- | --- | --- |
| GpH7-A5/GpH7-B3 variant S324_11K/GpL16-k0 (antibody, human IgG1, kappa, He Ab: heterodimerized IgG1, one H chain mutated) heavy 1: not shown heavy 2: not shown light: DIVMTQSPLSLPVTPGEPASISCQASESLVHSNRNTYLHWYLQKPGQSPQLLIYKVSNRFSGVPDRFSGSGSGTDFTLKISRVEAEDVGVYYCSQNTHVPPTFGQGTKVEIERTVAAPSVFIFPPSDEQLKSGTASVVCLLNNFYPREAKVQWKVDNALQSGNSQESVTEQDSKDSTYSLSSTLTLSKADYEKHKVYACEVTHQGLSSPVTKSFNRGEC | 96.3 | 91 | 102 | 89.6 |
| GpH7-A5/GpH7-B3 variant S324_12R/GpL16-k0 (antibody, human IgG1, kappa, He Ab: heterodimerized IgG1, one H chain mutated) heavy 1: not shown heavy 2: not shown light: DIVMTQSPLSLPVTPGEPASISCQASESLVHSNRNTYLHWYLQKPGQSPQLLIYKVSNRFSGVPDRFSGSGSGTDFTLKISRVEAEDVGVYYCSQNTHVPPTFGQGTKVEIERTVAAPSVFIFPPSDEQLKSGTASVVCLLNNFYPREAKVQWKVDNALQSGNSQESVTEQDSKDSTYSLSSTLTLSKADYEKHKVYACEVTHQGLSSPVTKSFNRGEC | 95.9 | 84 | 107 | 82.4 |
| GpH7-A5/GpH7-B3 variant S324_15Y/GpL16-k0 (antibody, human IgG1, kappa, He Ab: heterodimerized IgG1, one H chain mutated) heavy 1: not shown heavy 2: not shown light: DIVMTQSPLSLPVTPGEPASISCQASESLVHSNRNTYLHWYLQKPGQSPQLLIYKVSNRFSGVPDRFSGSGSGTDFTLKISRVEAEDVGVYYCSQNTHVPPTFGQGTKVEIERTVAAPSVFIFPPSDEQLKSGTASVVCLLNNFYPREAKVQWKVDNALQSGNSQESVTEQDSKDSTYSLSSTLTLSKADYEKHKVYACEVTHQGLSSPVTKSFNRGEC | 107 | 107 | 114 | 115 |
| GpH7-A5/GpH7-B3 variant S324_16H/GpL16-k0 (antibody, human IgG1, kappa, He Ab: heterodimerized IgG1, one H chain mutated) heavy 1: not shown heavy 2: not shown light: DIVMTQSPLSLPVTPGEPASISCQASESLVHSNRNTYLHWYLQKPGQSPQLLIYKVSNRFSGVPDRFSGSGSGTDFTLKISRVEAEDVGVYYCSQNTHVPPTFGQGTKVEIERTVAAPSVFIFPPSDEQLKSGTASVVCLLNNFYPREAKVQWKVDNALQSGNSQESVTEQDSKDSTYSLSSTLTLSKADYEKHKVYACEVTHQGLSSPVTKSFNRGEC | 106 | 105 | 113 | 109 |
| GpH7-A5/GpH7-B3 variant S324_18N/GpL16-k0 (antibody, human IgG1, kappa, He Ab: heterodimerized IgG1, one H chain mutated) heavy 1: not shown heavy 2: not shown light: DIVMTQSPLSLPVTPGEPASISCQASESLVHSNRNTYLHWYLQKPGQSPQLLIYKVSNRFSGVPDRFSGSGSGTDFTLKISRVEAEDVGVYYCSQNTHVPPTFGQGTKVEIERTVAAPSVFIFPPSDEQLKSGTASVVCLLNNFYPREAKVQWKVDNALQSGNSQESVTEQDSKDSTYSLSSTLTLSKADYEKHKVYACEVTHQGLSSPVTKSFNRGEC | 109 | 101 | 109 | 106 |
| GpH7-A5/GpH7-B3 variant S324_19Q/GpL16-k0 (antibody, human IgG1, kappa, He Ab: heterodimerized IgG1, one H chain mutated) heavy 1: not shown heavy 2: not shown light: DIVMTQSPLSLPVTPGEPASISCQASESLVHSNRNTYLHWYLQKPGQSPQLLIYKVSNRFSGVPDRFSGSGSGTDFTLKISRVEAEDVGVYYCSQNTHVPPTFGQGTKVEIERTVAAPSVFIFPPSDEQLKSGTASVVCLLNNFYPREAKVQWKVDNALQSGNSQESVTEQDSKDSTYSLSSTLTLSKADYEKHKVYACEVTHQGLSSPVTKSFNRGEC | 106 | 86.8 | 106 | 87.2 |
| GpH7-A5/GpH7-B3 variant Y296_01G/GpL16-k0 (antibody, human IgG1, kappa, He Ab: heterodimerized IgG1, one H chain mutated) heavy 1: not shown heavy 2: not shown light: DIVMTQSPLSLPVTPGEPASISCQASESLVHSNRNTYLHWYLQKPGQSPQLLIYKVSNRFSGVPDRFSGSGSGTDFTLKISRVEAEDVGVYYCSQNTHVPPTFGQGTKVEIERTVAAPSVFIFPPSDEQLKSGTASVVCLLNNFYPREAKVQWKVDNALQSGNSQESVTEQDSKDSTYSLSSTLTLSKADYEKHKVYACEVTHQGLSSPVTKSFNRGEC | 99.4 | 91.6 | 91.6 | 80.4 |
| GpH7-A5/GpH7-B3 variant Y296_02A/GpL16-k0 (antibody, human IgG1, kappa, He Ab: heterodimerized IgG1, one H chain mutated) heavy 1: not shown heavy 2: not shown light: DIVMTQSPLSLPVTPGEPASISCQASESLVHSNRNTYLHWYLQKPGQSPQLLIYKVSNRFSGVPDRFSGSGSGTDFTLKISRVEAEDVGVYYCSQNTHVPPTFGQGTKVEIERTVAAPSVFIFPPSDEQLKSGTASVVCLLNNFYPREAKVQWKVDNALQSGNSQESVTEQDSKDSTYSLSSTLTLSKADYEKHKVYACEVTHQGLSSPVTKSFNRGEC | 99.8 | 93 | 89.1 | 83.1 |
| GpH7-A5/GpH7-B3 variant Y296_03V/GpL16-k0 (antibody, human IgG1, kappa, He Ab: heterodimerized IgG1, one H chain mutated) heavy 1: not shown heavy 2: not shown light: DIVMTQSPLSLPVTPGEPASISCQASESLVHSNRNTYLHWYLQKPGQSPQLLIYKVSNRFSGVPDRFSGSGSGTDFTLKISRVEAEDVGVYYCSQNTHVPPTFGQGTKVEIERTVAAPSVFIFPPSDEQLKSGTASVVCLLNNFYPREAKVQWKVDNALQSGNSQESVTEQDSKDSTYSLSSTLTLSKADYEKHKVYACEVTHQGLSSPVTKSFNRGEC | 101 | 92 | 86.9 | 80.4 |
| GpH7-A5/GpH7-B3 variant Y296_04F/GpL16-k0 (antibody, human IgG1, kappa, He Ab: heterodimerized IgG1, one H chain mutated) heavy 1: not shown heavy 2: not shown light: DIVMTQSPLSLPVTPGEPASISCQASESLVHSNRNTYLHWYLQKPGQSPQLLIYKVSNRFSGVPDRFSGSGSGTDFTLKISRVEAEDVGVYYCSQNTHVPPTFGQGTKVEIERTVAAPSVFIFPPSDEQLKSGTASVVCLLNNFYPREAKVQWKVDNALQSGNSQESVTEQDSKDSTYSLSSTLTLSKADYEKHKVYACEVTHQGLSSPVTKSFNRGEC | 101 | 105 | 97.8 | 101 |
| GpH7-A5/GpH7-B3 variant Y296_06M/GpL16-k0 (antibody, human IgG1, kappa, He Ab: heterodimerized IgG1, one H chain mutated) heavy 1: not shown heavy 2: not shown light: DIVMTQSPLSLPVTPGEPASISCQASESLVHSNRNTYLHWYLQKPGQSPQLLIYKVSNRFSGVPDRFSGSGSGTDFTLKISRVEAEDVGVYYCSQNTHVPPTFGQGTKVEIERTVAAPSVFIFPPSDEQLKSGTASVVCLLNNFYPREAKVQWKVDNALQSGNSQESVTEQDSKDSTYSLSSTLTLSKADYEKHKVYACEVTHQGLSSPVTKSFNRGEC | 101 | 96.8 | 94.2 | 89 |
| GpH7-A5/GpH7-B3 variant Y296_07I/GpL16-k0 (antibody, human IgG1, kappa, He Ab: heterodimerized IgG1, one H chain mutated) heavy 1: not shown heavy 2: not shown light: DIVMTQSPLSLPVTPGEPASISCQASESLVHSNRNTYLHWYLQKPGQSPQLLIYKVSNRFSGVPDRFSGSGSGTDFTLKISRVEAEDVGVYYCSQNTHVPPTFGQGTKVEIERTVAAPSVFIFPPSDEQLKSGTASVVCLLNNFYPREAKVQWKVDNALQSGNSQESVTEQDSKDSTYSLSSTLTLSKADYEKHKVYACEVTHQGLSSPVTKSFNRGEC | 101 | 96.7 | 92.7 | 85.5 |
| GpH7-A5/GpH7-B3 variant Y296_08L/GpL16-k0 (antibody, human IgG1, kappa, He Ab: heterodimerized IgG1, one H chain mutated) heavy 1: not shown heavy 2: not shown light: DIVMTQSPLSLPVTPGEPASISCQASESLVHSNRNTYLHWYLQKPGQSPQLLIYKVSNRFSGVPDRFSGSGSGTDFTLKISRVEAEDVGVYYCSQNTHVPPTFGQGTKVEIERTVAAPSVFIFPPSDEQLKSGTASVVCLLNNFYPREAKVQWKVDNALQSGNSQESVTEQDSKDSTYSLSSTLTLSKADYEKHKVYACEVTHQGLSSPVTKSFNRGEC | 101 | 93.7 | 86.9 | 83.5 |
| GpH7-A5/GpH7-B3 variant Y296_09D/GpL16-k0 (antibody, human IgG1, kappa, He Ab: heterodimerized IgG1, one H chain mutated) heavy 1: not shown heavy 2: not shown light: DIVMTQSPLSLPVTPGEPASISCQASESLVHSNRNTYLHWYLQKPGQSPQLLIYKVSNRFSGVPDRFSGSGSGTDFTLKISRVEAEDVGVYYCSQNTHVPPTFGQGTKVEIERTVAAPSVFIFPPSDEQLKSGTASVVCLLNNFYPREAKVQWKVDNALQSGNSQESVTEQDSKDSTYSLSSTLTLSKADYEKHKVYACEVTHQGLSSPVTKSFNRGEC | 103 | 101 | 102 | 100 |
| GpH7-A5/GpH7-B3 variant Y296_10E/GpL16-k0 (antibody, human IgG1, kappa, He Ab: heterodimerized IgG1, one H chain mutated) heavy 1: not shown heavy 2: not shown light: DIVMTQSPLSLPVTPGEPASISCQASESLVHSNRNTYLHWYLQKPGQSPQLLIYKVSNRFSGVPDRFSGSGSGTDFTLKISRVEAEDVGVYYCSQNTHVPPTFGQGTKVEIERTVAAPSVFIFPPSDEQLKSGTASVVCLLNNFYPREAKVQWKVDNALQSGNSQESVTEQDSKDSTYSLSSTLTLSKADYEKHKVYACEVTHQGLSSPVTKSFNRGEC | 102 | 98.2 | 94 | 99.4 |
| GpH7-A5/GpH7-B3 variant Y296_11K/GpL16-k0 (antibody, human IgG1, kappa, He Ab: heterodimerized IgG1, one H chain mutated) heavy 1: not shown heavy 2: not shown light: DIVMTQSPLSLPVTPGEPASISCQASESLVHSNRNTYLHWYLQKPGQSPQLLIYKVSNRFSGVPDRFSGSGSGTDFTLKISRVEAEDVGVYYCSQNTHVPPTFGQGTKVEIERTVAAPSVFIFPPSDEQLKSGTASVVCLLNNFYPREAKVQWKVDNALQSGNSQESVTEQDSKDSTYSLSSTLTLSKADYEKHKVYACEVTHQGLSSPVTKSFNRGEC | 102 | 90.3 | 83.7 | 73.8 |
